Consider four molecules from publication PMC4109681 (Molecular cell, 2013).

First the molecules themselves.
T1: purified Hrd1p^321-551, containing its RING finger domain (Saccharomyces cerevisiae, UniProt Q08109 321-551)
T1 sequence (looked up): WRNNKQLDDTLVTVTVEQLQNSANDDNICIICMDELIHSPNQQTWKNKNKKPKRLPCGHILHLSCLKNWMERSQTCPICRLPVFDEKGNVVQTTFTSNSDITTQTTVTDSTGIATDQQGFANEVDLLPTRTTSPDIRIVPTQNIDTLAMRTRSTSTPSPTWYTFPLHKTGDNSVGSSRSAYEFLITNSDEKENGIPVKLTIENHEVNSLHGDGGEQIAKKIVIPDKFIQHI

B1: ^15N-Ubc7p (from pET3a-GB1-His6-Thrombin-Ubc7p) (enzyme, Saccharomyces cerevisiae, UniProt Q02159 1-165, looked up)
chain: MSKTAQKRLLKELQQLIKDSPPGIVAGPKSENNIFIWDCLIQGPPDTPYADGVFNAKLEFPKDYPLSPPKLTFTPSILHPNIYPNGEVCISILHSPGDDPNMYELAEERWSPVQSVEKILLSVMSMLSEPNIESGANIDACILWRDNRPEFERQVKLSILKSLGF
modifications: 15N-labelled
B2: Ubc7p:U7BR complex (for NMR titration) (complex, Saccharomyces cerevisiae)
chain 1: B1 chain
chain 2: LLDKFHVDLNEDMSNLSFKDLDIEERKRLLVWQARKNLETKLQSDKDLQSLLT
modifications: 15N-labelled
B3: purified Doa10p^1-112 RING fragment (domain or fragment, Saccharomyces cerevisiae, UniProt P40318 1-112, looked up)
chain: MDVDSDVNVSRLRDELHKVANEETDTATFNDDAPSGATCRICRGEATEDNPLFHPCKCRGSIKYMHESCLLEWVASKNIDISKPGADVKCDICHYPIQFKTIYAENMPEKIP

Assay [1] has as its target GST-Cue1p^151-203 U7BR^m4 (Saccharomyces cerevisiae) (UniProt P38428). Kind of assay: pull-down.
Assay [2] has as its target T1, purified Hrd1p^321-551, containing its …. Kind of assay: NMR titration.
In assay [3] the target is B2. Nature of the assay: NMR titration.
The assay “^15N-Ubc7p (from …)” has as its target B1. Kind of assay: NMR titration.

Broadly, the Kd is a measure of binding affinity in units of concentration. Read a high Kd as a looser complex.

On to “in vitro transcribed and translated ^35S-labeled Ubc7p (from UniProt Q02159 1-165) (enzyme)”, for which the loss of binding against wild-type in assay [1] was 40%.

For B1, in assay [2], the dissociation constant Kd is 107 µM.

In assay [2], B2 came in with a Kd of 13.4 µM.

As to B3, the binding result (in assay [3]; in the assay with ^15N-Ubc7p (from …)) was “binds” each time.
